Here are results for 14 molecules from US11278600B2, “Human alpha-galactosidase variants” (Codexis, Inc., priority 2014, dated 2022).

Substitutions are numbered along the chain they refer to.

The labels stand for the following.
B1: 166 (protein)
chain: LDNGLARTPTMGWLHWERFMCNLDCQEEPDSCIHEKLFMEMAELMVSEGWKDAGYEYLCIDDCWMAPQRDSEGRLQADPQRFPHGIRQLANYVHSKGLKLGIYADVGNKTCAGFPGSFGYYDIDAQTFADWGVDLLKFDGCYCDSLENLADGYKHMSLALNRTGRSIVYSCEWPLYMWPFQKPNYTEIRQYCNHWRNFADIDDSWKSIKSILDWTSFNQERIVDVAGPGGWNDPDMLVIGNFGLSWNQQVTQMALWAIMAAPLFMSNDLRHISPQAKALLQDKDVIAINQDPLGKQGYQLRQGDNFEVWERPLSGLAWAVAMINRQEIGGPRSYTIAVASLGKGVACNPACFITQLLPVKRKLGFYEWTSRLRSHINPTGTVLLQLENTRQMSKDLLL
modifications: Synthetic Polypeptide sequence of Variant No. 166 of mature Human GLA
B2: 169 (protein)
chain: B1 chain with H34S, S374T, R390M
modifications: Synthetic Polypeptide sequence of Variant No. 169 of mature Human GLA
B3: 177 (protein)
chain: B1 chain with H34S, S95D, R390M
modifications: Synthetic Polypeptide sequence of Variant No. 177 of mature Human GLA
B4: 179 (protein)
chain: B1 chain with H34S, S95Q, R390M
modifications: Synthetic Polypeptide sequence of Variant No. 179 of mature Human GLA
B5: 178 (protein)
chain: B1 chain with H34S, S95E, R390M
modifications: Synthetic Polypeptide sequence of Variant No. 178 of mature Human GLA
B6: 174 (protein)
chain: B1 chain with H34S, S47I, R390M
modifications: Synthetic Polypeptide sequence of Variant No. 174 of mature Human GLA
B7: 175 (protein)
chain: B1 chain with H34S, S47R, R390M
modifications: Synthetic Polypeptide sequence of Variant No. 175 of mature Human GLA
B8: 173 (protein)
chain: B1 chain with H34S, R390M, S393P
modifications: Synthetic Polypeptide sequence of Variant No. 173 of mature Human GLA
B9: 176 (protein)
chain: B1 chain with H34S, S47T, R390M
modifications: Synthetic Polypeptide sequence of Variant No. 176 of mature Human GLA
B10: 172 (protein)
chain: B1 chain with H34S, R390M, S393H
modifications: Synthetic Polypeptide sequence of Variant No. 172 of mature Human GLA
B11: 167 (protein)
chain: B1 chain with H34R, R390M
modifications: Synthetic Polypeptide sequence of Variant No. 16 of mature Human GLA
B12: 171 (protein)
chain: B1 chain with H34S, R390M, S393G
modifications: Synthetic Polypeptide sequence of Variant No. 171 of mature Human GLA
B13: 170 (protein)
chain: B1 chain with H34S, R390M, S393E
modifications: Synthetic Polypeptide sequence of Variant No. 170 of mature Human GLA
B14: 168 (protein)
chain: B1 chain with H34S, S374M, R390M
modifications: Synthetic Polypeptide sequence of Variant No. 168 of mature Human GLA

The first data set is described as follows: HTP-analysis of yeast culture supernatants, no challenge (MUGal hydrolysis). The class given is biochemical. The settings on record: activity of the variant/activity of WT GLA (SEQ ID NO: 5), yeast supernatant. The method in brief: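 GLA variants were expressed in INVSc1 yeast grown in SD-Ura broth with glucose at 30° C., and culture supernatants were collected after 66-84 h. Supernatant was mixed with McIlvaine buffer pH 4.8 and MUGal (2 mM stock) in 50 mM citrate, 200 mM KCl, pH 4.6, incubated at 37° C. for 30-180 minutes, then quenched with sodium carbonate.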
Regarding B1, the “Relative Activity of GLA Variants After No Challenge (NC)” value is “++ (++ = >1.5 to 2.5 relative activity over WT GLA (SEQ ID NO: 5))”.
Turning to B2, the “Relative Activity of GLA Variants After No Challenge (NC)” value is “++ (++ = >1.5 to 2.5 relative activity over WT GLA (SEQ ID NO: 5))”.
Still for that read-out and setting: as for B3, the entry is “+ (+ = 0.5 to 1.5 relative activity over WT GLA (SEQ ID NO: 5))”.
B4: the “Relative Activity of GLA Variants After No Challenge (NC)” value is recorded as “+ (+ = 0.5 to 1.5 relative activity over WT GLA (SEQ ID NO: 5))”.
Regarding B5, the “Relative Activity of GLA Variants After No Challenge (NC)” value is on record as “++ (++ = >1.5 to 2.5 relative activity over WT GLA (SEQ ID NO: 5))”.
As to B6, the “Relative Activity of GLA Variants After No Challenge (NC)” value is given as “+ (+ = 0.5 to 1.5 relative activity over WT GLA (SEQ ID NO: 5))”.
As to B7, the “Relative Activity of GLA Variants After No Challenge (NC)” value is reported as “+ (+ = 0.5 to 1.5 relative activity over WT GLA (SEQ ID NO: 5))”.
On to B8, for which the “Relative Activity of GLA Variants After No Challenge (NC)” value is on record as “++ (++ = >1.5 to 2.5 relative activity over WT GLA (SEQ ID NO: 5))”.
Consider B9, for which the “Relative Activity of GLA Variants After No Challenge (NC)” value is recorded as “+ (+ = 0.5 to 1.5 relative activity over WT GLA (SEQ ID NO: 5))”.
As for B10, the “Relative Activity of GLA Variants After No Challenge (NC)” value is given as “+ (+ = 0.5 to 1.5 relative activity over WT GLA (SEQ ID NO: 5))”.
In the case of B11, the “Relative Activity of GLA Variants After No Challenge (NC)” value is “+ (+ = 0.5 to 1.5 relative activity over WT GLA (SEQ ID NO: 5))”.
Take B12: the “Relative Activity of GLA Variants After No Challenge (NC)” value is given as “++ (++ = >1.5 to 2.5 relative activity over WT GLA (SEQ ID NO: 5))”.
Regarding B13, the “Relative Activity of GLA Variants After No Challenge (NC)” value is listed as “++ (++ = >1.5 to 2.5 relative activity over WT GLA (SEQ ID NO: 5))”.
With B14, the “Relative Activity of GLA Variants After No Challenge (NC)” value is reported as “++ (++ = >1.5 to 2.5 relative activity over WT GLA (SEQ ID NO: 5))”.

A further data set is described as follows: HTP-analysis of supernatants pretreated with acid (MUGal hydrolysis). The class given is biochemical. The settings on record: challenge at pH 4.2; activity of the variant/activity of WT GLA (SEQ ID NO: 5); yeast supernatant. The method in brief:
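Fluorescence of MUGal hydrolysis (Ex. 355 nm, Em. 448 nm) is read after sodium carbonate quench. The enzyme source is INVSc1 yeast culture supernatant, first exposed to pH 3.3-4.3 McIlvaine buffer at 37° C. for 1-3 h, then reacted at pH 4.8 for 30-180 minutes.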
In the case of B1, the “Relative Activity of GLA Variants After Challenge at pH 4.2” value (“Relative Activity … at pH 4.2” below) was “+ (+ = 0.5 to 1.5 relative activity over WT GLA (SEQ ID NO: 5))”.
As to B2, the “Relative Activity … at pH 4.2” value is on record as “++ (++ = >1.5 to 2.5 relative activity over WT GLA (SEQ ID NO: 5))”.
As for B3, the “Relative Activity … at pH 4.2” value is given as “++ (++ = >1.5 to 2.5 relative activity over WT GLA (SEQ ID NO: 5))”.
Regarding B4, the “Relative Activity … at pH 4.2” value is given as “+ (+ = 0.5 to 1.5 relative activity over WT GLA (SEQ ID NO: 5))”.
The same measure, in the same setting: as for B5, the entry is “+++ (+++ = >2.5 relative activity over WT GLA (SEQ ID NO: 5))”; as for B6, “+ (+ = 0.5 to 1.5 relative activity over WT GLA (SEQ ID NO: 5))”.
For the molecule B7, the “Relative Activity … at pH 4.2” value is recorded as “++ (++ = >1.5 to 2.5 relative activity over WT GLA (SEQ ID NO: 5))”.
Same read-out and setting: with B8 the entry was “++ (++ = >1.5 to 2.5 relative activity over WT GLA (SEQ ID NO: 5))”.
Turning to B9, the “Relative Activity … at pH 4.2” value is “+ (+ = 0.5 to 1.5 relative activity over WT GLA (SEQ ID NO: 5))”.
With B10, the “Relative Activity … at pH 4.2” value is reported as “+ (+ = 0.5 to 1.5 relative activity over WT GLA (SEQ ID NO: 5))”.
Turning to B11, the “Relative Activity … at pH 4.2” value is reported as “+ (+ = 0.5 to 1.5 relative activity over WT GLA (SEQ ID NO: 5))”.
B12: the “Relative Activity … at pH 4.2” value is reported as “++ (++ = >1.5 to 2.5 relative activity over WT GLA (SEQ ID NO: 5))”.
Turning to B13, the “Relative Activity … at pH 4.2” value is “++ (++ = >1.5 to 2.5 relative activity over WT GLA (SEQ ID NO: 5))”.
The same measure, in the same setting: with B14 the entry was “++ (++ = >1.5 to 2.5 relative activity over WT GLA (SEQ ID NO: 5))”.

Another data set can be described thus: HTP-analysis of supernatants pretreated with base (MUGal hydrolysis). The class given is biochemical. The settings on record: challenge at pH 7.1; activity of the variant/activity of WT GLA (SEQ ID NO: 5); yeast supernatant. The essentials: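 Fluorescence of released 4-MU (Ex 355 nm, Em 448 nm) after carbonate quench reports MUGal hydrolysis by GLA variants secreted from INVSc1 yeast. Before the acidic (pH 4.3-4.8) 30-180 min reaction at 37° C, supernatants had been pre-incubated at pH 7.0-9.7 for 1-18 h at 37° C.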
Take B1: the “Relative Activity of GLA Variants After Challenge at pH 7.1” value (“Relative Activity … at pH 7.1” below) is reported as “+ (+ = 0.5 to 1.5 relative activity over WT GLA (SEQ ID NO: 5))”.
As for B2, the “Relative Activity … at pH 7.1” value is reported as “++ (++ = >1.5 to 2.5 relative activity over WT GLA (SEQ ID NO: 5))”.
On to B3, for which the “Relative Activity … at pH 7.1” value is “+ (+ = 0.5 to 1.5 relative activity over WT GLA (SEQ ID NO: 5))”.
In the case of B4, the “Relative Activity … at pH 7.1” value is listed as “+ (+ = 0.5 to 1.5 relative activity over WT GLA (SEQ ID NO: 5))”.
Turning to B5, the “Relative Activity … at pH 7.1” value was “++ (++ = >1.5 to 2.5 relative activity over WT GLA (SEQ ID NO: 5))”.
With B6, the “Relative Activity … at pH 7.1” value is listed as “+ (+ = 0.5 to 1.5 relative activity over WT GLA (SEQ ID NO: 5))”.
For B7, the “Relative Activity … at pH 7.1” value is “+ (+ = 0.5 to 1.5 relative activity over WT GLA (SEQ ID NO: 5))”.
On the same count and under the same terms, with B8 the entry was “++ (++ = >1.5 to 2.5 relative activity over WT GLA (SEQ ID NO: 5))”; with B9, “+ (+ = 0.5 to 1.5 relative activity over WT GLA (SEQ ID NO: 5))”; with B10, “+ (+ = 0.5 to 1.5 relative activity over WT GLA (SEQ ID NO: 5))”.
The same measure, in the same setting: with B11 the entry was “+ (+ = 0.5 to 1.5 relative activity over WT GLA (SEQ ID NO: 5))”; with B12, “++ (++ = >1.5 to 2.5 relative activity over WT GLA (SEQ ID NO: 5))”; with B13, “++ (++ = >1.5 to 2.5 relative activity over WT GLA (SEQ ID NO: 5))”.
Still for that read-out and setting: with B14 the entry was “++ (++ = >1.5 to 2.5 relative activity over WT GLA (SEQ ID NO: 5))”.
